In doi:10.1101/2021.05.11.443658 (bioRxiv, 2021):

Biological target: the molecule itself
Experiment: non-reducing SDS-PAGE

B1: Thioredoxin-His-tagged OsbZIP47 full-length protein (natural protein, rice (Oryza sativa), UniProt Q5Z6N9 1-385, looked up)
chain: MAAHQGMAAATAADRFCLPRMAAAAAAASQVENWGDSGVIVSSPFTDDTSTDLDDSADKHHLHALVGGGDGGDDAGEQRGADSSAVSKERRGDQKMQRRLAQNREAARKSRMRKKAYIQQLESSRSKLMHLEQELQRARQQGIFIATGGSGDHGHSIGGNGTLAFDLEYARWLDEHQRHINDLRVALNAQMSDDELCELVDAVMMHYDQVFRLKSFATKSDVFHVLSGMWMSPAERFFMWLGGFRSSELLKVLASHLEPLTDQQLMGICNLQQSSQQAEDALSQGMEALQQTLGDTLVSAAATVVSGGGGADNVTNYMGQMAIAMAKLTTLENFLRQADLLRHQTLQQMHRILTTRQAARALLVISDYFSRLRALSSLWLARPRD
- binding result: binds
